Patent publication US20250346890A1, “LEUKEMIA TREATMENT” (Deutsches Krebsforschungszentrum, priority 2019, published 2025)

Key:
THP-1 cells = assay: Monocyte-macrophage differentiation of THP-1 cells (FACS / qRT-PCR of CD14, CD11B); type: cell-based, human; conditions: THP-1 cells, co-treatment of ATRA with RSPO2
Procedure: (§1) Cultured cells were lysed in Macherey-Nagel RAI buffer containing 1% β-mercaptoethanol and total RNAs were isolated using NucleoSpin RNA isolation kit (Macherey-Nagel 740955). Reverse transcription and PCR amplification were performed. Primers used in this study are listed in Supplementary Table 1. Graphs show relative gene expressions to GAPDH. […] Statistical analyses were performed using PRISM7 software with unpaired t-test or one-way ANOVA test.
For analyzing macrophage differentiation of THP-1, cells were harvested, pelleted and resuspended in ice-cold blocking buffer (PBS supplemented with 1% BSA and 0.1% NaN3). Cells were treated with Fc Receptor Binding Inhibitor as recommended by the manufacturer (eBioscience 14916173) and stained directly with FITC/APC-conjugated antibodies diluted in blocking buffer or with non-conjugated primary antibodies followed by fluorochrome-labeled secondary antibodies. Isotype-matched antibodies were used as controls. Dead cells were excluded by counterstaining with propidium iodide. For analyzing apoptosis of THP-1, cells were fixed in 4% PFA, permeabilized by MeOH and blocked with PBS supplemented with 1% BSA and 0.1% Tween-20. Cells were stained with anti-active Caspase-3 antibody and fluorochrome-labeled secondary antibody. FACS Samples were analyzed with FACSCalibur or FACSCanto (BD Biosciences). 10,000 events per samples were acquired, and results were processed with Cell Quest or FACSDiva software (BD Biosciences). For BMP4 stimulation, cells were treated with 5 and 25 ng ml^−1 recombinant human BMP4 protein (R&D systems 314-BP). 100, 300 and 1000 nM LDN […] (Tocris 6053) were used for rescue assay. For the THP-1 cell number quantification and differentiation validation in vivo, bone marrow cells were harvested from tibias of NSG mice and red blood cells were removed by ACK Lysing Buffer (Gibco A1049201). Cells were stained and analyzed as above. Here, 50,000 PI-negative events per samples were acquired.
THP-1 cells were treated with 0.3, 1.0 and 3.0 μg ml^−1 goat polyclonal anti-RSPO2 antibodies (R&D systems AF3266) or goat polyclonal GFP antibodies (ABIN 100085). After 48 hours, medium was replaced including fresh antibodies—and incubated another 24 hours. Western blot analysis and FACS analyses were performed as discussed above.
The sequences of shRSPO2 and shControl (Table 1) were synthesized, inserted into the transfer plasmid Tet-pLKO-puro (Addgene 21915) and validated by sequencing. Lentivirus was produced with the 3rd generation lentiviral system according to the protocol available at the Trono lab as described (www.epfl.ch/labs/tronolab/). THP-1 cells were infected with lentivirus with 8 μg ml^−1 Polybrene (Sigma TR-1003) and selected with 0.5 μg ml^−1 puromycin (Calbiochem 540411). Single cell clones were obtained by limiting dilutions. The shRNA expression of clones was validated by monitoring RSPO2 expression after doxycycline treatment (1.0 μg ml^−1) for 3 days.

Smad1 = assay: Western blot of pSmad1 and tSmad1 in HEPG2 cells; type: cell-based, human
Procedure: Cultured cells were rinsed with cold PBS and lysed in Triton lysis buffer ([…] Tris-Cl, pH 7.5, 1% Triton X-100, 150 mM NaCl, 1 mM EDTA, 1 mM EGTA, 1 mM β-glycerophosphate, 1 mM Na3 VO4) or RIPA buffer with complete Protease Inhibitor Cocktail (Roche 11697498001). Lysates were mixed with Laemmli buffer with β-mercaptoethanol and boiled at 95° C. for 5 min to prepare SDS-PAGE samples. Western blot images were acquired with SuperSignal West pico ECL (ThermoFisher 34580) or Clarity Western ECL (Biorad 1705061) using LAS-3000 system (FujiFilm). Quantification of blots was done using ImageJ software.

LGR4 = molecular target: T1, LGR4 (Xenopus tropicalis, UniProt B0BLW3); assay: Cell surface binding assay in HEK293T cells transfected with LGR4
T1 construct: expressed in transfected cells; host or cells: HEK293T
T1 sequence (B0BLW3 22-955): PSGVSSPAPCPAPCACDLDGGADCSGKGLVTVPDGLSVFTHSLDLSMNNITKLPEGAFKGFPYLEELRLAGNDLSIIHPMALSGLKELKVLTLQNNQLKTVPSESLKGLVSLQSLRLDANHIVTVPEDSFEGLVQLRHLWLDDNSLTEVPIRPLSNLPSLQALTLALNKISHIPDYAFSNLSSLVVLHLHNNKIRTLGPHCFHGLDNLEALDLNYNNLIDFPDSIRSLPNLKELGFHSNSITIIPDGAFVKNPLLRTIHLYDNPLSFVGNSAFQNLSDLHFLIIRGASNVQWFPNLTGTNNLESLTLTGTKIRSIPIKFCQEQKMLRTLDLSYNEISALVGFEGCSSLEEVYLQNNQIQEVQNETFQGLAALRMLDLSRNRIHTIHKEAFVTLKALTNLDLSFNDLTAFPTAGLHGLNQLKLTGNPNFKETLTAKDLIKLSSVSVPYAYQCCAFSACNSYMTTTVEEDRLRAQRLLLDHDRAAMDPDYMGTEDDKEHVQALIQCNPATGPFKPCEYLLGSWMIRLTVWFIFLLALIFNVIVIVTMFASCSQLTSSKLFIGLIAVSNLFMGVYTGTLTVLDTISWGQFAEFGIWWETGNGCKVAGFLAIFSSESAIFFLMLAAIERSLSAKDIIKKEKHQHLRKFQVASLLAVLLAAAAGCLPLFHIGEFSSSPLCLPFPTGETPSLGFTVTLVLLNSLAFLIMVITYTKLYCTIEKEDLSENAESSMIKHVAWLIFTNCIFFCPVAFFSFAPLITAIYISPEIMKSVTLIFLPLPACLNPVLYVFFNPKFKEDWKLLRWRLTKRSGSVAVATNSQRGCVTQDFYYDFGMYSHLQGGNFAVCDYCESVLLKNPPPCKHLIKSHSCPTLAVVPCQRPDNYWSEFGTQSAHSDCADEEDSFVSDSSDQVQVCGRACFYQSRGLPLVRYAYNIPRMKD
Procedure: (§2) Cell surface binding assays were carried essentially out as previously described (Dosch et al. (1997), Development 124, 2325-2334). In brief, human ALK3-HA and Xenopus tropicalis LGR4 DNA were transfected in HEK293T cells, and incubated with 1.5 U ml^−1 conditioned media for 3 hours on ice. After several washes and crosslinking, cells were treated with 2 mM Levamisole for 20 min to inactivate endogenous AP activities and developed with BM-Purple (Sigma 11442074001). Cells were mounted with Fluoromount G. Images were obtained using LEICA DMIL microscope/Canon DS126311 camera.

ID1 = assay: qRT-PCR analysis of ID1 in HEPG2 cells; type: cell-based, human; conditions: BMP4
Procedure: as §1

ALK3 = molecular target: T2, ALK3 (Homo sapiens, UniProt P36894); assay: Cell surface binding assay in HEK293T cells transfected with ALK3
T2 construct: expressed in transfected cells; host or cells: HEK293T
Procedure: as §2

T2 sequence (P36894 24-532): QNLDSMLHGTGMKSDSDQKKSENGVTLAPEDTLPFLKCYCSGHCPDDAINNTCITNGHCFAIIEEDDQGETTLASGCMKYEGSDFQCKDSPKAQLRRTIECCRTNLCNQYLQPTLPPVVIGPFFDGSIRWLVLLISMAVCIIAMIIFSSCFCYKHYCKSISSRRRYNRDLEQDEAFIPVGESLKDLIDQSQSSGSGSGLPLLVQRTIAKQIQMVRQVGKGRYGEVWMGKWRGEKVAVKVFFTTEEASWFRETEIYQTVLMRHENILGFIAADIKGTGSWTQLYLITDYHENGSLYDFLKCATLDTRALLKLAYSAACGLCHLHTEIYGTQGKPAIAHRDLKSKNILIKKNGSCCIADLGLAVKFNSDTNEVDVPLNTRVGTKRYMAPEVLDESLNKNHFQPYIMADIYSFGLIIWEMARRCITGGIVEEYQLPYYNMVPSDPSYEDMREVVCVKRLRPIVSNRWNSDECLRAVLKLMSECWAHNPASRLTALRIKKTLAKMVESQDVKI

B1: RSPO2: human R-spondin 2 protein (SEQ ID NO:1); conditioned medium or recombinant (Peprotech 120-43) (protein, listed as Homo sapiens)
chain: MQFRLFSFALIILNCMDYSHCQGNRWRRSKRASYVSNPICKGCLSCSKDNGCSRCQQKLFFFLRREGMRQYGECLHSCPSGYYGHRAPDMNRCARCRIENCDSCFSKDFCTKCKVGFYLHRGRCFDECPDGFAPLEETMECVEGCEVGHWSEWGTCSRNNRTCGFKWGLETRTRQIVKKPVKDTILCPTIAESRRCKMTMRHCPGGKRTPKAKEKRNKKKKRKLIERAQEQHSVFLATDRANQ
What does the source list for B1?
ATRA-induced Smad1-phosphorylation, ID1 and CD11B expression (THP-1 cells): reverted these effects; phosphorylation of Smad1 (Smad1): decreased phosphorylation of Smad1; LGR binding (LGR4): required the FU domains but not TSP1; expression of ID1 (ID1): decreased; ALK3 binding (ALK3): required the TSP1—but not the FU domains
